The values that follow come from patent publication US20040247566A1.

This test addresses human IL-9 receptor (human) (UniProt Q01113). The test can be described thus: cell-based or functional assay.
Sequence of UniProt Q01113 (Q01113 41-521, chain 1 of 2): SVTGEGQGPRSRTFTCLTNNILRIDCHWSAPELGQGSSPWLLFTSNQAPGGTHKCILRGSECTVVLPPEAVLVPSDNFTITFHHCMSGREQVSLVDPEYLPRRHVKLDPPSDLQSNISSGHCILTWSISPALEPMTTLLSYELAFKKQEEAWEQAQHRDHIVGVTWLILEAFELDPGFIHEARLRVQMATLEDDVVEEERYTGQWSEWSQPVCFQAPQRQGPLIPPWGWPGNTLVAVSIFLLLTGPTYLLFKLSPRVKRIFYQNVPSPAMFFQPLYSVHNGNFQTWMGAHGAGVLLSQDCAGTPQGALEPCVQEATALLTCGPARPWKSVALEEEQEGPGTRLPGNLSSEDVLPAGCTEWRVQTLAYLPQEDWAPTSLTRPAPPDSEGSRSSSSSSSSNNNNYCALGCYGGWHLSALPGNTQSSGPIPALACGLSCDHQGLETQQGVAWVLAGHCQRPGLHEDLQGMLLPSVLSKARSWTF
Sequence of UniProt Q01113 (P31785 23-369, chain 2 of 2, further chain): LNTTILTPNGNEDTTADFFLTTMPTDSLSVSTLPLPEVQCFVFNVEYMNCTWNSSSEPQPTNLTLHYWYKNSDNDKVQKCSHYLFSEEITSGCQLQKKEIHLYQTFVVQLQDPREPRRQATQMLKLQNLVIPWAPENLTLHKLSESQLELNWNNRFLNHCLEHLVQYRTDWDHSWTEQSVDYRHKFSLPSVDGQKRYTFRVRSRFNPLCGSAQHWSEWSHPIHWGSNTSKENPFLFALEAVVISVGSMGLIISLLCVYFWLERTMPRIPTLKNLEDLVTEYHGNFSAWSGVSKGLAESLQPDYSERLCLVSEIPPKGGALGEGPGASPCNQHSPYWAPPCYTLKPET

Consider “Amino-terminal Fc-fusion construct of the K126E/Q133K IL-9 mutein (Fc fusion)”, for which the IC50, antagonism of IL-9-mediated eosinophil survival (7.14 nM wild-type IL-9) was 25.5 nM and the IC50, antagonism of IL-9 mediated Mo7e proliferation (0.357 nM wild-type IL-9) is 1.15 nM.
For “Carboxy-terminal Fc-fusion construct of the K126E/Q133K IL-9 mutein (Fc fusion)”, in that order: 4.92 nM and 0.66 nM.
